Patent US20170283834A1, “Processes for Producing A Fermentation Product Using A Fermenting Organism” (Novozymes A/S, priority 2014, published 2017)

B1: JTP005: protease variant of SEQ ID NO: 3: A112P (protein, listed as Thermoascus aurantiacus)
chain: MRLVASLTALVALSVPVFPAAVNVKRASSYLEITLSQVSNTLIKAVVQNTGSDELSFVHLNFFKDPAPVKKVSVYRDGSEVQFEGILSRYKSTGLSRDAFTYLAPGESVEDVFDIASTYDLTSGGPVTIRTEGVVPYATANSTDIAGYISYSSNVLTIDVDGAAAATVSKAITPLDRRTRISSCSGSRQSALTTALRNAASLANAAADAAQSGSASKFSEYFKTTSSSTRQTVAARLRAVAREASSSSSGATTYYCDDPYGYCSSNVLAYTLPSYNIIANCDIFYTYLPPLTSTCHAQDQATTALHEFTHAPGVYSPGTDDLAYGYQAAMGLSSSQAVMNADTYALYANAIYLGC
B2: JTP012: protease variant of SEQ ID NO: 3: D79L/S87P (protein, listed as Thermoascus aurantiacus)
chain: MRLVASLTALVALSVPVFPAAVNVKRASSYLEITLSQVSNTLIKAVVQNTGSDELSFVHLNFFKDPAPVKKVSVYRDGSEVQFEGILSRYKSTGLSRDAFTYLAPGESVEDVFDIASTYDLTSGGPVTIRTEGVVPYATANSTDIAGYISYSSNVLTIDVDGAAAATVSKAITPLDRRTRISSCSGSRQSALTTALRNAASLANAAADAAQSGSASKFSEYFKTTSSSTRQTVAARLRAVAREASSSSSGATTYYCLDPYGYCSPNVLAYTLPSYNIIANCDIFYTYLPALTSTCHAQDQATTALHEFTHAPGVYSPGTDDLAYGYQAAMGLSSSQAVMNADTYALYANAIYLGC
B3: JTP016: protease variant of SEQ ID NO: 3: A73C (protein, listed as Thermoascus aurantiacus)
chain: MRLVASLTALVALSVPVFPAAVNVKRASSYLEITLSQVSNTLIKAVVQNTGSDELSFVHLNFFKDPAPVKKVSVYRDGSEVQFEGILSRYKSTGLSRDAFTYLAPGESVEDVFDIASTYDLTSGGPVTIRTEGVVPYATANSTDIAGYISYSSNVLTIDVDGAAAATVSKAITPLDRRTRISSCSGSRQSALTTALRNAASLANAAADAAQSGSASKFSEYFKTTSSSTRQTVAARLRAVAREASSSSSGCTTYYCDDPYGYCSSNVLAYTLPSYNIIANCDIFYTYLPALTSTCHAQDQATTALHEFTHAPGVYSPGTDDLAYGYQAAMGLSSSQAVMNADTYALYANAIYLGC
B4: JTP011: protease variant of SEQ ID NO: 3: D79M (protein, listed as Thermoascus aurantiacus)
chain: MRLVASLTALVALSVPVFPAAVNVKRASSYLEITLSQVSNTLIKAVVQNTGSDELSFVHLNFFKDPAPVKKVSVYRDGSEVQFEGILSRYKSTGLSRDAFTYLAPGESVEDVFDIASTYDLTSGGPVTIRTEGVVPYATANSTDIAGYISYSSNVLTIDVDGAAAATVSKAITPLDRRTRISSCSGSRQSALTTALRNAASLANAAADAAQSGSASKFSEYFKTTSSSTRQTVAARLRAVAREASSSSSGATTYYCMDPYGYCSSNVLAYTLPSYNIIANCDIFYTYLPALTSTCHAQDQATTALHEFTHAPGVYSPGTDDLAYGYQAAMGLSSSQAVMNADTYALYANAIYLGC
B5: JTP010: protease variant of SEQ ID NO: 3: D79L (protein, listed as Thermoascus aurantiacus)
chain: MRLVASLTALVALSVPVFPAAVNVKRASSYLEITLSQVSNTLIKAVVQNTGSDELSFVHLNFFKDPAPVKKVSVYRDGSEVQFEGILSRYKSTGLSRDAFTYLAPGESVEDVFDIASTYDLTSGGPVTIRTEGVVPYATANSTDIAGYISYSSNVLTIDVDGAAAATVSKAITPLDRRTRISSCSGSRQSALTTALRNAASLANAAADAAQSGSASKFSEYFKTTSSSTRQTVAARLRAVAREASSSSSGATTYYCLDPYGYCSSNVLAYTLPSYNIIANCDIFYTYLPALTSTCHAQDQATTALHEFTHAPGVYSPGTDDLAYGYQAAMGLSSSQAVMNADTYALYANAIYLGC
B6: JTP008: protease variant of SEQ ID NO: 3: R2P (protein, listed as Thermoascus aurantiacus)
chain: MRLVASLTALVALSVPVFPAAVNVKRASSYLEITLSQVSNTLIKAVVQNTGSDELSFVHLNFFKDPAPVKKVSVYRDGSEVQFEGILSRYKSTGLSRDAFTYLAPGESVEDVFDIASTYDLTSGGPVTIRTEGVVPYATANSTDIAGYISYSSNVLTIDVDGAAAATVSKAITPLDRRTPISSCSGSRQSALTTALRNAASLANAAADAAQSGSASKFSEYFKTTSSSTRQTVAARLRAVAREASSSSSGATTYYCDDPYGYCSSNVLAYTLPSYNIIANCDIFYTYLPALTSTCHAQDQATTALHEFTHAPGVYSPGTDDLAYGYQAAMGLSSSQAVMNADTYALYANAIYLGC
B7: JTP009: protease variant of SEQ ID NO: 3: D79K (protein, listed as Thermoascus aurantiacus)
chain: MRLVASLTALVALSVPVFPAAVNVKRASSYLEITLSQVSNTLIKAVVQNTGSDELSFVHLNFFKDPAPVKKVSVYRDGSEVQFEGILSRYKSTGLSRDAFTYLAPGESVEDVFDIASTYDLTSGGPVTIRTEGVVPYATANSTDIAGYISYSSNVLTIDVDGAAAATVSKAITPLDRRTRISSCSGSRQSALTTALRNAASLANAAADAAQSGSASKFSEYFKTTSSSTRQTVAARLRAVAREASSSSSGATTYYCKDPYGYCSSNVLAYTLPSYNIIANCDIFYTYLPALTSTCHAQDQATTALHEFTHAPGVYSPGTDDLAYGYQAAMGLSSSQAVMNADTYALYANAIYLGC
B8: JTP013: protease variant of SEQ ID NO: 3: D79L/S87P/A112P (protein, listed as Thermoascus aurantiacus)
chain: MRLVASLTALVALSVPVFPAAVNVKRASSYLEITLSQVSNTLIKAVVQNTGSDELSFVHLNFFKDPAPVKKVSVYRDGSEVQFEGILSRYKSTGLSRDAFTYLAPGESVEDVFDIASTYDLTSGGPVTIRTEGVVPYATANSTDIAGYISYSSNVLTIDVDGAAAATVSKAITPLDRRTRISSCSGSRQSALTTALRNAASLANAAADAAQSGSASKFSEYFKTTSSSTRQTVAARLRAVAREASSSSSGATTYYCLDPYGYCSPNVLAYTLPSYNIIANCDIFYTYLPPLTSTCHAQDQATTALHEFTHAPGVYSPGTDDLAYGYQAAMGLSSSQAVMNADTYALYANAIYLGC
B9: JTP014: protease variant of SEQ ID NO: 3: D79L/S87P/A112P (protein, listed as Thermoascus aurantiacus)
chain: MRLVASLTALVALSVPVFPAAVNVKRASSYLEITLSQVSNTLIKAVVQNTGSDELSFVHLNFFKDPAPVKKVSVYRDGSEVQFEGILSRYKSTGLSRDAFTYLAPGESVEDVFDIASTYDLTSGGPVTIRTEGVVPYATANSTDIAGYISYSSNVLTIDVDGAAAATVSKAITPLDRRTRISSCSGSRQSALTTALRNAASLANAAADAAQSGSASKFSEYFKTTSSSTRQTVAARLRAVAREASSSSSGATTYYCLDPYGYCSPNVLAYTLPSYNIIANCDIFYTYLPPLTSTCHAQDQATTALHEFTHAPGVYSPGTDDLAYGYQAAMGLSSSQAVMNADTYALYANAIYLGC

Test system: zein
Test: Relative activity assay of protease variants (zein micro titer plate)
Type: biochemical
Details: Table 2
Method: Each well contains 200 microL of 0.05-0.1% of zein (Sigma), 0.25 mM ZnSO4 and 1% of agar in 20 mM sodium acetate buffer, pH 4.5.
Yeast clones on SC-glucose were inoculated to a well of a 96-well micro titre plate containing YPD+Zn medium and cultivated at 28° C. for 3 days. The culture supernatants were applied to a 96-well zein micro titer plate and incubated at at least 2 temperatures (ex. 60° C. and 65° C., 70° C. and 75° C., 70° C. and 80° C.) for more than 4 hours or overnight. The turbidity of zein in the plate was measured as A630 and the relative activity (higher/lower temperatures) was determined as an indicator of thermoactivity improvement. The clones with higher relative activity than the parental variant were selected and the sequence was determined.

Row | Molecule | Relative activity 65° C./60° C.
1 | B1 | 43%
2 | B2 | 86%
3 | B3 | 52%
4 | B4 | 73%
5 | B5 | 75%
6 | B6 | 71%
7 | B7 | 69%
8 | B8 | 90%
9 | B9 | 88%
